A word on the Km: it is the concentration of substrate that gives half-maximal velocity. A word on the Vmax: it is the rate approached at saturating substrate. The kcat is the maximal rate divided by the concentration of active sites. One may read the kcat/Km as the second-order rate constant that governs catalysis at low substrate concentration.

One substance from PMC4490510, “Cloning, Expression and Characterization of a Thermostable Esterase HydS14 from Actinomadura sp. Strain S14 in Pichia pastoris” (International Journal of Molecular Sciences, 2015) can be followed below.

The subject of data set [1] is T1, CC(=O)Oc1ccc([N+](=O)[O-])cc1.
T1 construct: ORF 258 aa, 26,604 Da, no signal peptide; secreted from Pichia pastoris X33 via pPICZalphaA with 6xHis tag (predicted 29,117 Da, ~30 kDa SDS-PAGE), Ni-Sepharose purified, not N-glycosylated
Nature of the data set: purified protein. The class given is biochemical, Actinomadura sp. S14. The settings on record: 50 mM Tris-HCl pH 8.0, 50 °C, 0.4% Triton X-100, 0.1% gum arabic.

Data set [2] relates to T2, CCCC(=O)Oc1ccc([N+](=O)[O-])cc1.
T2 construct: ORF 258 aa, 26,604 Da, no signal peptide; secreted from Pichia pastoris X33 via pPICZalphaA with 6xHis tag (predicted 29,117 Da, ~30 kDa SDS-PAGE), Ni-Sepharose purified, not N-glycosylated
Nature of the data set: purified protein. The class given is biochemical, Actinomadura sp. S14. The settings on record: 50 mM Tris-HCl pH 8.0, 50 °C, 0.4% Triton X-100, 0.1% gum arabic.

HydS14 (Actinomadura sp. S14): in data set [1], the Km is 360 ± 10 µM, the Vmax came out at 35.3 µmol/min/mg, the kcat amounted to 2.37 ± 0.06 s⁻¹ and the kcat/Km worked out at 6590 ± 40 M⁻¹ s⁻¹. In addition, in data set [2], the Km stood at 210 ± 20 µM, the Vmax came to 37.1 µmol/min/mg, the kcat turned out to be 2.47 ± 0.07 s⁻¹ and the kcat/Km was 11700 ± 780 M⁻¹ s⁻¹.
